Data published in patent US20250222136A1, “GENE EDITING SYSTEM FOR TREATING USHER SYNDROME” (GenKOre, Inc., priority 2022, published 2025).

Assays:
[1] = test system: Target-1 (SEQ ID NO: 358), human endogenous DNA target site; assay: Indel efficiency of CWCas12f1 gene editing system with engineered gRNAs, target sequence 1; format: cell-based
Description: (§1) To this end, each of the modification site MS3 to MS5 in the canonical sgRNA was further subdivided into three sections (see FIG. 2A). By combining one or more of these modifications, engineered gRNAs (see Table 10 in Example 1.2.1) were produced, and the indel activity for each of them was tested. As target sequences for comparing the indel efficiency, two types of human endogenous DNA target sites comprising the PAM sequence recognized as the cleavage site by the CWCas12f1 protein were identified and used, and the specific nucleotide sequences are provided in Table 12 below.
(§2) Next, to obtain a highly efficient engineered single guide RNA for the CWCas12f1 protein, 5′-[…]uuagGGGAUUA […]gaaaGAAUGAAGGAAUGCAA […]-3′ (SEQ ID NO: 337), which is a mature form (hereinafter referred to as ‘MF’) sgRNA, and engineered gRNAs having partial modifications in the nucleotide sequence of the MF sgRNA were produced (see Table 11), and the indel efficiency of the CWCas12f1 gene editing system caused by them was measured.
(§3) Meanwhile, the comparative experiment of indel efficiency of the engineered Cas12f1 proteins in Examples 1.2.2 and 1.2.3 was performed as follows.
(§4) One day before transfection, HEK293T cells, which had been grown in 24-well plates to 80-90% confluency (based on 100φ dishes), were diluted 1/100 and passaged to prepare a volume of 500 μl. A total of 2 μg of DNA (vector+sgRNA transcription cassette targeting DY10) was used per transfection well. The experiment was repeated twice for each group. A transfection mixture was prepared which contains 1.5 μg of plasmid encoding the wild-type Cas12f1 or the engineered Cas12f1, 0.5 μg of the sgRNA transcription cassette, 200 μl of DMEM (excluding FBS and antibiotics), and 6 μl of FuGENE (Promega) reagent.
(§5) DNA and DMEM containing FuGENE reagent were mixed and vortexed, and then incubated for 15 minutes. 200 μl of the thus prepared transfection mixture was used to treat the cells prepared in a 24-well plate, and incubated at 37° C. […]
(§6) Indel frequency was calculated using MAUND provided at ┌https://github.com/ibs-cge/maund┘.

[2] = test system: Target-2 (SEQ ID NO: 359), human endogenous DNA target site; assay: Indel efficiency of CWCas12f1 gene editing system with engineered gRNAs, target sequence 2; format: cell-based
Description: as §1, §2, §3, §4, §5, §6

B1: Canonical sgRNA: canonical (wild-type, full length) single guide RNA for Cas12f1, SEQ ID NO: 177 (nucleic acid)
guide: CUUCACUGAUAAAGUGGAGAACCGCUUCACCAAAAGCUGUCCCUUAGGGGAUUAGAACUUGAGUGAAGGUGGGCUGCUUGCAUCAGCCUAAUGUCGAGAAGUGCUUUCUUCGGAAAGUAACCCUCGAAACAAAUUCAUUUUUCCUCUCCAAUUCUGCACAAGAAAGUUGCAGAACCCGAAUAGACGAAUGAAGGAAUGCAACNNNNNNNNNNNNNNNNNNNN
modifications: Canonical sgRNA for Cas12f1; misc_feature 203..222 n is a, c, g or u
[1]; CWCas12f1 protein, Target-1 (SEQ ID NO: 358), gRNAs engineered from canonical sgRNA, FIG. 3A
  indel efficiency: did not cause cleavage of the target strand
[2]; CWCas12f1 protein, Target-2 (SEQ ID NO: 359), gRNAs engineered from canonical sgRNA, FIG. 3B
  indel efficiency: did not cause cleavage of the target strand

B2: MS3-3/MS4-3: MF-based engineered sgRNA, SEQ ID NO: 347 (nucleic acid)
guide: ACCGCUUCACCAAAAGCUGUCCCUUAGGGGAUUAGAACUUGAGUGAAGGUGGGCUGCUUGCAUCAGCCUAAUGUCGAGAAGUGCUUUCUUCGGAAAGUAACCCUCGAAACAAAGAAAGGAAUGCAACNNNNNNNNNNNNNNNNNNNN
modifications: Mature form sgRNA with modification of MS3-3/MS4-3; misc_feature 128..147 n is a, c, g or u
[1]; CWCas12f1, Target-1, MF-based gRNA with U-rich tail (U4AU4) added to the 3′-end (MS2), FIG. 4B
  indel efficiency: about 60%
[1]; CWCas12f1, Target-1, gRNAs engineered from mature form (MF) sgRNA, no U-rich tail, FIG. 4A
  indel efficiency: about 40%
[2]; CWCas12f1, Target-2, MF-based gRNA with U-rich tail (U4AU4) added to the 3′-end (MS2), FIG. 4D
  indel efficiency: about 50%
[2]; CWCas12f1, Target-2, gRNAs engineered from mature form (MF) sgRNA, no U-rich tail, FIG. 4C
  indel efficiency: about 20%
